Results taken from patent US20240024426A1, “HYPOTENSIVE PHARMACEUTICAL COMPOSITION COMPRISING TRIPLE ACTIVATOR HAVING ACTIVITY FOR ALL OF GLUCAGON, GLP-1, AND GIP RECEPTORS” (HANMI PHARM. CO., LTD., priority 2020, published 2024).
Bridges are numbered along the chain shown (N, C = ends). Where no end group is shown, it is not given here. [ ]: non-standard residue; d: D form. The star is where a group is joined. Acetyl(2-(4-imidazolyl)) = O=C(Cc1c[nH]cn1)*; Aib = CC(C)(N)C(=O)O

T1: human GIP receptor (human, UniProt P48546 22-466)
T1 sequence (looked up): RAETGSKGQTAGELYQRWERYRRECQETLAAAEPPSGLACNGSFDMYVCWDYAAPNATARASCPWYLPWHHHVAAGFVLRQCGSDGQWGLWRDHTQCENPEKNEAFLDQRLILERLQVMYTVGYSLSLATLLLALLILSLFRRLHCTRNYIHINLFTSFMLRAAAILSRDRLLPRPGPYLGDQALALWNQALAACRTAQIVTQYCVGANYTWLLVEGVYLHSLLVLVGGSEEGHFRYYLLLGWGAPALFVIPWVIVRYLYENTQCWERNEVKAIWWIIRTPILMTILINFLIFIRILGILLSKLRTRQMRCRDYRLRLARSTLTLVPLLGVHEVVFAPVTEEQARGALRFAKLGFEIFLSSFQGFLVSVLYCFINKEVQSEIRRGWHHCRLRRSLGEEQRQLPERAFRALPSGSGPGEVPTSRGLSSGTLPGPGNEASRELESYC


Assays:
Assay in all cases: cell-based or functional assay
human GIP receptor = molecular target: T1, human GIP receptor
human GCG receptor = human GCG receptor (human, UniProt P47871 26-477)
human GLP-1 receptor = human GLP-1 receptor (human, UniProt P43220 24-463)

Chain of human GCG receptor (P47871 26-477): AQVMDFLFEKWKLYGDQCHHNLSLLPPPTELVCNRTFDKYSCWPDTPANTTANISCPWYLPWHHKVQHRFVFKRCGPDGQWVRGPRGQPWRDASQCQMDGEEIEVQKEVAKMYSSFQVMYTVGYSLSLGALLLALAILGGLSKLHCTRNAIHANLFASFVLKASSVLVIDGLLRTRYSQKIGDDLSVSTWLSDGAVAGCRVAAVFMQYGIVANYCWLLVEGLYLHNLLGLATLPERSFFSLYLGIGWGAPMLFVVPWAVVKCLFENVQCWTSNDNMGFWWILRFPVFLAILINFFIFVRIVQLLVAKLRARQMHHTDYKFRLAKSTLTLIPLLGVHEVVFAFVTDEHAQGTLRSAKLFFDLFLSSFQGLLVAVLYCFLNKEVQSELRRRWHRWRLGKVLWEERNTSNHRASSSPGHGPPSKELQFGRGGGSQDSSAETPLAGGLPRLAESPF

Binder | In vitro activity compared with native peptide (%) vs. GIP (human GIP receptor) [%] | In vitro activity compared with native peptide (%) vs. Glucagon (human GCG receptor) [%] | In vitro activity compared with native peptide (%) vs. GLP-1 (human GLP-1 receptor) [%]
H[Aib]QGTFTSDYSKYLDEKRQKEFVNWLLAQC (also: ring formation, positions not given here) [Triple agonist of SEQ ID NO: 56] | 0.8 | 4.9 | 57.9
Y[Aib]QGTFTSDYSKCLDERAAKEFVQWLLDHHPSSGQPPPS (bridge 16-20) [Triple agonist of SEQ ID NO: 69] | 62.8 | 9.6 | 24.3
Y[Aib]QGTFTSDYSKYLDECAAKDFVQWLLDHHPSSGQPPPS (also: ring formation, positions not given here) [Triple agonist of SEQ ID NO: 67] | 39.8 | 46.2 | 28.5
Y[Aib]QGTFTSDYSKYLDERACKDFVQWLLDHHPSSGQPPPS (bridge 16-20) [Triple agonist of SEQ ID NO: 71] | 94.7 | 12.7 | 90.1
H[Aib]QGTFTSDVSKYLDGQAAKEFVAWLLKGC [Triple agonist of SEQ ID NO: 7] | < 0.1 | < 0.1 | 13.7
H[Aib]QGTFTSDYSKCLDEKRAKEFVQWLLDHHPSSGQPPPS (bridge 16-20) [Triple agonist of SEQ ID NO: 65] | 11.6 | 25.2 | 95.4
{Acetyl(2-(4-imidazolyl))}-[Aib]QGTFTSDYSKYLDECRAKEFVQWLLDHHPSSGQPPPS (bridge 15-19) [Triple agonist of SEQ ID NO: 73] | 3 | 5.4 | 22.6
{Acetyl(2-(4-imidazolyl))}-[Aib]QGTFTSDYSKCLDEKRAKEFVQWLLDHHPSSGQPPPS (bridge 15-19) [Triple agonist of SEQ ID NO: 74] | 1 | 0.9 | 12.9
H[Aib]QGTFTSDVSKYLDGQAAQEFVAWLLKGC [Triple agonist of SEQ ID NO: 8] | < 0.1 | 0.1 | 14.2
{Acetyl(2-(4-imidazolyl))}-[Aib]QGTFTSDKSKYLDERAAQDFVQWLLDGGPSSGAPPPS [Triple agonist of SEQ ID NO: 62] | < 0.1 | < 0.1 | 5.2
Y[Aib]QGTFTSDYSKCLDEKRAKDFVQWLLDHHPSSGQPPPS (bridge 16-20) [Triple agonist of SEQ ID NO: 70] | 64.4 | 71.3 | 15.1
H[Aib]QGTFTSDYSIAMDEIHQKDFVNWLLAQC (bridge 16-20) [Triple agonist of SEQ ID NO: 55] | 2.4 | 0.7 | 27.1
{Acetyl(2-(4-imidazolyl))}-[Aib]QGTFTSDYSIAMDEKHCKDFVNWLLNTK (bridge 15-19) [Triple agonist of SEQ ID NO: 60] | 8.2 | < 0.1 | 106
Y[Aib]QGTFTSDYSKYLDEKAAKEFVQWLLDHHPSSGQPPPSC (bridge 16-20) [Triple agonist of SEQ ID NO: 75] | 18 | 8.5 | 35.1
Y[Aib]QGTFTSDYSKCLDEKAAKEFVQWLLDHHPSSGQPPPS (bridge 16-20) [Triple agonist of SEQ ID NO: 68] | 107 | 8.8 | 27.9
{Acetyl(2-(4-imidazolyl))}-[Aib]QGTFTSDYSICMDEKHQKDFVNWLLNTK (bridge 15-19) [Triple agonist of SEQ ID NO: 59] | 4 | < 0.1 | 40.3
H[Aib]QGTFTSDVSSYLDGQAAKEFVAWLLKGC [Triple agonist of SEQ ID NO: 6] | < 0.1 | < 0.1 | 17
Y[Aib]QGTFTSDYSKYLDECRAKDFVQWLLDHHPSSGQPPPS (bridge 16-20) [Triple agonist of SEQ ID NO: 66] | 17.2 | 172 | 15.8
H[Aib]QGTFTSDYSIAMDEIHQKDFVNWLLNTC (bridge 16-20) [Triple agonist of SEQ ID NO: 57] | 0.3 | < 0.1 | 11.7
Y[Aib]QGTFTSDYSKYLDECAAKEFVQWLLDHHPSSGQPPPS (bridge 16-20) [Triple agonist of SEQ ID NO: 64] | 92.9 | 60.1 | 64.6
H[Aib]QGTFTSDYSKYLDEKRQKEFVQWLLNTKC (bridge 16-20) [Triple agonist of SEQ ID NO: 58] | 0.2 | 2.6 | 39.1
H[Aib]EGTFTSDYSIAMDEIHQKDFVDWLLAEC (bridge 16-20) [Triple agonist of SEQ ID NO: 54] | 0.1 | 1.4 | 30.6
{Acetyl(2-(4-imidazolyl))}-[Aib]QGTFTSDYSIAMDEIACKDFVNWLLNTK (bridge 15-19) [Triple agonist of SEQ ID NO: 61] | 2.8 | < 0.1 | 59.8
H[Aib]EGTFTSDYSIAMDEIHQKDFVNWLLAQC (bridge 16-20) [Triple agonist of SEQ ID NO: 53] | 1.3 | 8.4 | 161
{Acetyl(2-(4-imidazolyl))}-[Aib]QGTFTSDCSKYLDERAAQDFVQWLLDGGPSSGAPPPS [Triple agonist of SEQ ID NO: 63] | < 0.1 | < 0.1 | 15.3
Y[Aib]QGTFTSDCSKYLDERAAKDFVQWLLDHHPSSGQPPPS (bridge 16-20) [Triple agonist of SEQ ID NO: 72] | 1.6 | 1 | 11.5
